From the nanobody polyreactivity screen of Harvey et al. (2022)

Assay: yeast display, Sf9 membrane polyspecificity reagent, FACS + sequencing; frameworks hold sequencing errors
Procedure, shortened: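 Using colony PCR, genes from sorted yeast display clones were amplified, then sequenced on MiSeq at 2 × 250 and filtered by CDR length. The clones had been stained with 10% biotinylated, detergent-solubilized Sf9 membrane reagent for 1 hour at 4 °C and sorted by FACS into low and high (top ~1%) gates on anti-HA and streptavidin fluorescence. Polyreactivity labels come from the gate of origin.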

Sequence	polyreactivity (PSR sort gate)
QVQLVESGGGLVQAGGSLRLSCAASGSTFAGNAMGWYRHAPGKERELVAAIDSSTGSTYYADSVKGRFTISLDNAKNTVYLQMNSLKPEDTAVYYCNKTSFLVKLDFWGQGTQVTVSS	low polyreactivity
QVQLVESGGGLVQAGGSLRLSCAASGSTFAGNAMGWYRQAHGKERELVAALDSSTGSTYYAYSVKGRFTISRDNAKNTVYLQMNSVKPEDTAVYYWNKTSFLVKLDYWGQGTQVTVSS	low polyreactivity
QVQLVESGGGLVQAGGSLRLSCAASGSTFAGNTMGWSRQAPGKERELVAAITWNGGRTRYADSVKGRFTISRDNAKNTVYLQMNSLKPEDTAVYYCNAGPWYENMDYWGQGTQVTVSS	high polyreactivity
QVQLVESGGGLVQAGGSLRLSCAASGSTFAGYAMGWYRQAPGKERELVAAISKSGGSTYYADSVKGRFTISRDNAKNTVYLQMNSLKPEDTAVYYCAARGGLPDGQGYYYWGQGTQVTVSS	high polyreactivity
QVQLVESGGGLVQAGGSLRLSCAASGSTFAGYAMGWYRQAPGKERELVAAISRRGGSTYYADSVKGRFTISRDYAKNTVYLQMNRLKPEDTAVYYCNRDKYLRDPDYDYWGQGSQVTVSS	low polyreactivity
QVQLVESGGGLVQAGGSLRLSCAASGSTFAIYAMGWYRPAPGKERELVAAITLRTDSTYYADSVKGRFTISRDNAKNTVYLQMNSLKPEDTAVYYCNTVAYMRRFDKWGMNYWGQGTQVTVSS	low polyreactivity
QVQLVESGGGLVQAGGSLRLSCAASGSTFAIYAMGWYRQAPGKERELVAAISKSGGSTYYADSVKGRFTISRDNAKNTVYLQMNSLKPEDTAVYYCARRQYAFGPYGFYYWGQGTQVTVSS	high polyreactivity
QVQLVESGGGLVQAGGSLRLSCAASGSTFAIYAMGWYRQAPGKERELVASISGGSTNYADSVKGRFTISRDNAKNTVYLQMNSLKPEDTAVYYCAARGALHHWYSYDYWGQGTQVTVSS	low polyreactivity
QVQLVESGGGLVQAGGSLRLSCAASGSTFAKNAMGVYRQAPGKERELVAAISRGGNTYYADSVKGRFTISRDNAKITVYLLMNSLKPEDTAVYYCAARYLFRSLNMDYWGQVTQVTVSS	high polyreactivity
QVQLVESGGGLVQAGGSLRLSCAASGSTFAKYAMGWSRQAPGKEREFVAAITASGGRTFYADSVKGRFTISRDNAKNTVYLQMNSLKPEDSAVYYCAADVVPTWYGYNYDYWGQGTQVTVSS	high polyreactivity
QVQLVESGGGLVQAGGSLRLSCAASGSTFALNAMGWYRQAPGKERELVAAISGRGGSTYYADSVKGRFTISRDNAKNTVYLQMNSLKPEDTAVYYCAATSRVYVRGSYWKYGYWGQGTQVTVSS	high polyreactivity
QVQLVESGGGLVQAGGSLRLSCAASGSTFAPNAMGWYRQAPGKEKEIVSGITWGDSTYYADSVKGRFTISRDNAKNTVYLQMNSLKPEDTAVYYCAVRWVWNPWGIQGDWAVDYDYWGQGTQVTVSS	low polyreactivity
QVQLVESGGGLVQAGGSLRLSCAASGSTFAPNAMGWYRQAPGKERELVAAISRGGSTYYADSVKGRFTISRDNAKNTVYLQMNSLKPEDTAVYYCAVYKFHYGYVWYPYDYWGQGTQVTVSS	high polyreactivity
QVQLVESGGGLVQAGGSLRLSCAASGSTFAPYAMGWYRQAPGKERELVAAITWRGGSTYYADSVKGRFTISRDNAKYTVYLQMNSLKPEDTAVYYCNADGYVPDYEYWGQGTQVTVSS	high polyreactivity
QVQLVESGGGLVQAGGSLRLSCAASGSTFAQDALGWYRQAPGKERELVATISASGGTTYYADSVKGRFSISRDNAKNPVYLQMNSLKPEDTAVYYCAKRRVWWPAHRSYLYASEFGYWGQGTQVTVSS	low polyreactivity
QVQLVESGGGLVQAGGSLRLSCAASGSTFAQNAMGWYRQAPGKEREFVAAITGTVGSTYYADSVKGRFTISRDNAKNTVYLQMNSLKPEDTAVHYCAVVHVFYAVSYFSFYTYDYWGQGTQVTVSS	low polyreactivity
QVQLVESGGGLVQAGGSLRLSCAASGSTFAQNTKGWYRQAPGKERELVATISDGGGSTYYADSVKGRFTISRDNAKNTVYLQMNSLKPEDTAVYYCNTDRFWPSDYWGQGTQVTVSS	low polyreactivity
QVQLVESGGGLVQAGGSLRLSCAASGSTFAQNTMGWYRQAPGKERELVATISDGGGSTYYADSVKGRFTISRDNAKNTVYLQMNSLKPDDTAVYYCNTDRFWPSDYWGQGTQVTVSS	low polyreactivity
QVQLVESGGGLVQAGGSLRLSCAASGSTFAQYVMGWYRQAPWKERELFAAISRGGGRTYYADSVKGRFTISRDNAKNTVYLQMNSLKPEDTAVYYCAAETLGVYDYESYNYYWGQGTQVTVSS	high polyreactivity
QVQLVESGGGLVQAGGSLRLSCAASGSTFARNAMGRNRQAPGKERELVARITWSGSGTFYADPVKGRFTISRDNAKNTVYLQMYCLKPQDTAVYYCASEGPSAGFDYWGQGTQVTVSS	high polyreactivity
QVQLVESGGGLVQAGGSLRLSCAASGSTFARNTMGWYRHAPGKERELVAVITRGDSTYYADSVKGRFTISRDNAKNTVYLQMNSLKPEDTAGYYCNAYFRYAYPSKMDYWVQGTQVTVSS	low polyreactivity

Sequence	polyreactivity (PSR sort gate)
QVQLVESGGGLVQAGGSLRLSCAASGSTFARYAMGWYRQAPGKERELVASITTGGRTYYADSVKGRFTITRDNAKYTVYLQMNSLKPEDTPVYFCNVLRYRGYDYWGQGTQVTVSS	high polyreactivity
QVQLVESGGGLVQAGGSLRLSCAASGSTFARYAMGWYRQAPGKERELVAVITQSGSSTYYADSVKGRFTISRDNAKNTVYLQMNSLKPEDTAVYYCAAVGIDYTRYGRYWYSYDYWGQGTQVTVSS	high polyreactivity
QVQLVESGGGLVQAGGSLRLSCAASGSTFASNAMGWYRQAPGKERELVAAIDWTGASTYYADSVKGRFTISRDNAKNTVYLQMNSLKPEDTAVYYCNADEYWNSRTQGYNYWGQGTQVTVSS	low polyreactivity
QVQLVESGGGLVQAGGSLRLSCAASGSTFASNMGWYRQAPGKERELVAGIRSSGSTYYADSVKGRFTISRDNAKNTVYLQMNSLKPEDTAVYSCNKGDYRTYPYDYWGQGTQVTVSS	low polyreactivity
QVQLVESGGGLVQAGGSLRLSCAASGSTFASNTMGWYRQAPGKERELVAAITQSGGTTYYADSVKGRFTISRDNAKNTVYLQMNSLKPEDTAVYYCAADATFIIRYLSRSDYWGQGTQVTVSS	low polyreactivity
QVQLVESGGGLVQAGGSLRLSCAASGSTFASNVMGWYRQAPGKERELVAAISRSGGNTYYADSVKGRFTISRDNAKNSVYLQMNSLKPEDTAVYYCAKYPFTRISYDYWGQGTQVTVSS	high polyreactivity
QVQLVESGGGLVQAGGSLRLSCAASGSTFASYAMGWYRQAPGKEREFVAAISRSGGSTYYADSVKGRFTISRDNAKNTVYLQMTSLKPEDTAVYYCAARSPSADEYYYWGQGTQVTVSS	low polyreactivity
QVQLVESGGGLVQAGGSLRLSCAASGSTFATYAMGWYRQAPGKERELVAVISRSGGSTYYADSVKGRFTISRDNAKNTVYLQMNSLKPEDTAVYYCNVPITPGRVKYDYWGQGTQVTVSS	high polyreactivity
QVQLVESGGGLVQAGGSLRLSCAASGSTFAVNAMGWYRQAPGKERELVAAISGSGGRTYYADSVKGRFTISRDNAKNTVYLQMNSLKPEDTAVYYCATELRASYRSSGAYHYDYWGQGTQVTVSS	low polyreactivity
QVQLVESGGGLVQAGGSLRLSCAASGSTFAVNAMGWYRQAPGKERELVAVITGNGANTYYADSVKGRFTISRDNAKNTVYLQMNSLKPEDTAVYYCNARLFSQSHYYYWGQGTQVTVSS	high polyreactivity
QVQLVESGGGLVQAGGSLRLSCAASGSTFAWYDMGWYRQAPGKEREFVAAIDYGGGSTYADSVKGRFTISRDNAKNTVYLQMNSLKPEDTAVYYCNADNWVYLYDYWGQGTQVTVSS	low polyreactivity
QVQLVESGGGLVQAGGSLRLSCAASGSTFAYNAKGWYRQAPGKERELTNYADSVKGRFTISRDNAKNTVYLQMNSLKPEDNAVYYCIAQIDFGVPDKRAWGYDYWGQGTQVTVSS	low polyreactivity
QVQLVESGGGLVQAGGSLRLSCAASGSTFAYNAMGWYRQAPGKERELVATMSYSGGTTDYADSVKGRFTISRDNAKNTVYLQMNSLKPEDTAVYYCNADHLTWGGWGIRKYDYWGQGTQVTVSS	high polyreactivity
QVQLVESGGGLVQAGGSLRLSCAASGSTFAYNAMGWYRQAPGNERELVAAISFTGDSTYYADSVKGRFTISRDNAKNTVYLQMNSLKPEDTRTSPVLSYDYWGQGTLVTVSS	low polyreactivity
QVQLVESGGGLVQAGGSLRLSCAASGSTFAYNDMGWYRLAPGKERELVADIRSGGNTNYADSVKGRFTISRDNAKNTVYLQMNSLKPEDTAVYYCATDGYRIDVYHPDYRYDYWGQGTQVTVSS	low polyreactivity
QVQLVESGGGLVQAGGSLRLSCAASGSTFAYYAMGWYRQAPGKERELVASISWRGGSTYYADSVKGRFTNSRDNAKNTVYLQMNSLKPEDTAVYYCAAGRFYIWSRSQEYDYWGQGTQVTVSS	low polyreactivity
QVQLVESGGGLVQAGGSLRLSCAASGSTFAYYDMGRYRPAPGKERELVAAITIDGRTSYADSVKGRFTISRDNAMNTVYLQMNSLKPEDTAVYYCNTEIRLSKYDYWGQGTQVTVSS	low polyreactivity
QVQLVESGGGLVQAGGSLRLSCAASGSTFCRNAMGWYRQAPGKERELVAAISRRGGSTYYADSVKGRFTISRDNAKNTVYLQMTSLKPEDTAVYYCYRDSSYKHNYDYWAQGTQVTVSS	high polyreactivity
QVQLVESGGGLVQAGGSLRLSCAASGSTFDANAMGWYRQAPGKERELVARMSRSTGSTYYADSVKGRFTISRDTAMNSVYLQLNSLKPVDTAVYYCAKVSRASNKYGYWGQGTQVTVSS	high polyreactivity
QVQLVESGGGLVQAGGSLRLSCAASGSTFDAYAMGWYIQAPGKERELVAAITNGGSTNYADSVKGRFTISRDNAKNTVYLQMNSLQPEDTAVYYCNAQHRTVRGIFGRFNYWGQGTQVTVSS	low polyreactivity
